In this assay the target is T1, recombinant human CEACAM5 (Homo sapiens, UniProt P06731).
T1 sequence (P06731 35-676): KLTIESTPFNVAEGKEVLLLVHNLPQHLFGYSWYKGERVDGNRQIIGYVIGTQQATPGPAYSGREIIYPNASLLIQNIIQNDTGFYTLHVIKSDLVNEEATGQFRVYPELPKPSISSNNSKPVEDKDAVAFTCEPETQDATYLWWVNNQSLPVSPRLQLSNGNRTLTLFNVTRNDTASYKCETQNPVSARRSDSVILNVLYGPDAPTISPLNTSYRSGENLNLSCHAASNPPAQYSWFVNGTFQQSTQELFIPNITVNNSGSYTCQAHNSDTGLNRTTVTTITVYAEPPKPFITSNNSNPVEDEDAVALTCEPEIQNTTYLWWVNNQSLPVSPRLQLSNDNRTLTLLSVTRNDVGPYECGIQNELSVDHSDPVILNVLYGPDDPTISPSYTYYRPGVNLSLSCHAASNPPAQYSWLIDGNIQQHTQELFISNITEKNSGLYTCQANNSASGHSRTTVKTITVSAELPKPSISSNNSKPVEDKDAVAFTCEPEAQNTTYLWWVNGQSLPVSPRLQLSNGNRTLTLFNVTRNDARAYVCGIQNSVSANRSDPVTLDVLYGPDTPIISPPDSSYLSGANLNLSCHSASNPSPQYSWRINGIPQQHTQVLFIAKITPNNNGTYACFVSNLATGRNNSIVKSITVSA
The assay can be described thus: ELISA binding to recombinant human CEACAM5. Conditions: read-out: affinity (ELISA). An excerpt:
“Affinity” is defined, in theory, by the equilibrium association between the whole antibody and the antigen. It can be experimentally assessed by a variety of known methods, such as measuring association and dissociation rates with surface plasmon resonance or measuring the EC50 (or apparent KD) in an immunochemical assay (ELISA, FACS). In these assays, the EC50 is the concentration of the antibody which induces a response halfway between the baseline and maximum after some specified exposure time on a defined concentration of antigen by ELISA (enzyme-linked immuno-sorbent assay) or cell expressing the antigen by FACS (Fluorescence Activated Cell Sorting).
Affinity for human CEACAM5 or for Macaca fascicularis CEACAM5 may be determined as the EC50 value in an ELISA using soluble recombinant CEACAM5 as capture antigen.

B1: naked antibody: humanized anti-CEACAM5 antibody (tusamitamab), CAS Registry No. 2349294-95-5; VH SEQ ID NO: 6, VL SEQ ID NO: 7 (antibody, V domains shown)
VH: EVQLQESGPGLVKPGGSLSLSCAASGFVFSSYDMSWVRQTPERGLEWVAYISSGGGITYAPSTVKGRFTVSRDNAKNTLYLQMNSLTSEDTAVYYCAAHYFGSSGPFAYVVGQGTLVTVSS
VL: DIQMTQSPASLSASVGDRVTITCRASENIFSYLAWYQQKPGKSPKLLVYNTRTLAEGVPSRFSGSGSGTDFSLTISSLQPEDFATYYCQHHYGTPFTFGSGTKLEI
Take B1: the EC50 was ~0.02 nM.
